This passage reports abundance fitness results from the Human Domainome abundance scans (Beltran et al. 2025).

The labels stand for the following.
B1: SWI/SNF-related matrix-associated actin-dependent regulator of chromatin subfamily B member 1, residues 181 to 248; numbered along this chain, Q12824 (parent)
chain: SQPEVLVPIRLDMEIDGQKLRDAFTWNMNEKLMTPEMFSEILCDDLDLNPLTFVPAIASAIRQQIESY

± gives the uncertainty stated by the source.

The variants in the series derive from B1. Briefly: abundance fitness (aPCA) (normalised: wild type 0, dead -1); higher = more abundant; growth selection in yeast, the domain comes from the species named. The conditions noted are these: Homo sapiens.
With SQPEVLVPIRLDMEIDGQCLRDAFTWNMNEKLMTPEMFSEILCDDLDLNPLTFVPAIASAIRQQIESY [K19C], the abundance fitness was 0.128 ± 0.11.
In the case of SQPEVLVPIRLDMEIDGQWLRDAFTWNMNEKLMTPEMFSEILCDDLDLNPLTFVPAIASAIRQQIESY [K19W] it was -0.7 ± 0.5; in that of SQPEVLVPIRLDMEIDGQALRDAFTWNMNEKLMTPEMFSEILCDDLDLNPLTFVPAIASAIRQQIESY [K19A], -0.32 ± 0.17.
As for SQPEVLVPIRLDMEIDAQKLRDAFTWNMNEKLMTPEMFSEILCDDLDLNPLTFVPAIASAIRQQIESY [G17A], the abundance fitness was -0.867 ± 0.13.
Regarding SQPEVLVPIRLDMEIDRQKLRDAFTWNMNEKLMTPEMFSEILCDDLDLNPLTFVPAIASAIRQQIESY [G17R], the abundance fitness was -0.713 ± 0.071.
Take SQPEVLVPIRLDMEIDVQKLRDAFTWNMNEKLMTPEMFSEILCDDLDLNPLTFVPAIASAIRQQIESY [G17V]: the abundance fitness is -1 ± 0.13.
In the case of SQPEVLVPIRLDMEIDEQKLRDAFTWNMNEKLMTPEMFSEILCDDLDLNPLTFVPAIASAIRQQIESY [G17E] it was -0.931 ± 0.18.
For SQPEVLVPIRLDMEIDWQKLRDAFTWNMNEKLMTPEMFSEILCDDLDLNPLTFVPAIASAIRQQIESY [G17W], the abundance fitness is -0.897 ± 0.14.
SQPEVLVPIRLDMEIDNQKLRDAFTWNMNEKLMTPEMFSEILCDDLDLNPLTFVPAIASAIRQQIESY [G17N]: the abundance fitness is -0.714 ± 0.49.
Regarding SQPEVLVPIRLDMEIDKQKLRDAFTWNMNEKLMTPEMFSEILCDDLDLNPLTFVPAIASAIRQQIESY [G17K], the abundance fitness was -0.365 ± 0.099.
SQPEVLVPIRLDMEIDPQKLRDAFTWNMNEKLMTPEMFSEILCDDLDLNPLTFVPAIASAIRQQIESY [G17P]: the abundance fitness was -0.927 ± 0.29.
With SQPEVLVPIRLDMEIDHQKLRDAFTWNMNEKLMTPEMFSEILCDDLDLNPLTFVPAIASAIRQQIESY [G17H], the abundance fitness is -0.66 ± 0.23.
To SQPEVLVPIRLDMEIDSQKLRDAFTWNMNEKLMTPEMFSEILCDDLDLNPLTFVPAIASAIRQQIESY [G17S] belongs -0.769 ± 0.13; to SQPEVLVPIRLDMEIDCQKLRDAFTWNMNEKLMTPEMFSEILCDDLDLNPLTFVPAIASAIRQQIESY [G17C], -0.545 ± 0.12; to SQPEVLVPIRLDMEIDMQKLRDAFTWNMNEKLMTPEMFSEILCDDLDLNPLTFVPAIASAIRQQIESY [G17M], -1.07 ± 0.27.
For the variant SQPEVLVPIRLDMEIDDQKLRDAFTWNMNEKLMTPEMFSEILCDDLDLNPLTFVPAIASAIRQQIESY [G17D], the abundance fitness is -0.745 ± 0.18.
On to SQPEVLVPIRLDMEIDTQKLRDAFTWNMNEKLMTPEMFSEILCDDLDLNPLTFVPAIASAIRQQIESY [G17T], for which the abundance fitness is -0.896 ± 0.24.
For SQPEVLVPIRLDMEIDGWKLRDAFTWNMNEKLMTPEMFSEILCDDLDLNPLTFVPAIASAIRQQIESY [Q18W], the abundance fitness amounted to 0.158 ± 0.21.
Turning to SQPEVLVPIRLDMEIDGHKLRDAFTWNMNEKLMTPEMFSEILCDDLDLNPLTFVPAIASAIRQQIESY [Q18H], the abundance fitness was -0.136 ± 0.33.
For the variant SQPEVLVPIRLDMEIDGAKLRDAFTWNMNEKLMTPEMFSEILCDDLDLNPLTFVPAIASAIRQQIESY [Q18A], the abundance fitness is -0.311 ± 0.069.
With SQPEVLVPIRLDMEIDGVKLRDAFTWNMNEKLMTPEMFSEILCDDLDLNPLTFVPAIASAIRQQIESY [Q18V], the abundance fitness came to 0.107 ± 0.083.
SQPEVLVPIRLDMEIDGRKLRDAFTWNMNEKLMTPEMFSEILCDDLDLNPLTFVPAIASAIRQQIESY [Q18R]: the abundance fitness was -0.276 ± 0.13.
In the case of SQPEVLVPIRLDMEIDGKKLRDAFTWNMNEKLMTPEMFSEILCDDLDLNPLTFVPAIASAIRQQIESY [Q18K] it was -0.234 ± 0.26; in that of SQPEVLVPIRLDMEIDGLKLRDAFTWNMNEKLMTPEMFSEILCDDLDLNPLTFVPAIASAIRQQIESY [Q18L], -0.297 ± 0.16.
For SQPEVLVPIRLDMEIDGSKLRDAFTWNMNEKLMTPEMFSEILCDDLDLNPLTFVPAIASAIRQQIESY [Q18S], the abundance fitness was -0.425 ± 0.099.
Turning to SQPEVLVPIRLDMEIDGTKLRDAFTWNMNEKLMTPEMFSEILCDDLDLNPLTFVPAIASAIRQQIESY [Q18T], the abundance fitness was -0.347 ± 0.11.
On to SQPEVLVPIRLDMEIDGPKLRDAFTWNMNEKLMTPEMFSEILCDDLDLNPLTFVPAIASAIRQQIESY [Q18P], for which the abundance fitness was -0.93 ± 0.23.
SQPEVLVPIRLDMEIDGGKLRDAFTWNMNEKLMTPEMFSEILCDDLDLNPLTFVPAIASAIRQQIESY [Q18G]: the abundance fitness was -1.01 ± 0.27.
For the variant SQPEVLVPIRLDMEIDGQKERDAFTWNMNEKLMTPEMFSEILCDDLDLNPLTFVPAIASAIRQQIESY [L20E], the abundance fitness is -0.94 ± 0.32.
In the case of SQPEVLVPIRLDMEIDGQKHRDAFTWNMNEKLMTPEMFSEILCDDLDLNPLTFVPAIASAIRQQIESY [L20H], the abundance fitness was -0.525 ± 0.37.
As for SQPEVLVPIRLDMEIDGQKIRDAFTWNMNEKLMTPEMFSEILCDDLDLNPLTFVPAIASAIRQQIESY [L20I], the abundance fitness was -0.013 ± 0.14.
In the case of SQPEVLVPIRLDMEIDGQKKRDAFTWNMNEKLMTPEMFSEILCDDLDLNPLTFVPAIASAIRQQIESY [L20K] it was -0.598 ± 0.29; in that of SQPEVLVPIRLDMEIDGQKGRDAFTWNMNEKLMTPEMFSEILCDDLDLNPLTFVPAIASAIRQQIESY [L20G], -0.677 ± 0.18; in that of SQPEVLVPIRLDMEIDGQKCRDAFTWNMNEKLMTPEMFSEILCDDLDLNPLTFVPAIASAIRQQIESY [L20C], -0.319 ± 0.067.
Take SQPEVLVPIRLDMEIDGQKFRDAFTWNMNEKLMTPEMFSEILCDDLDLNPLTFVPAIASAIRQQIESY [L20F]: the abundance fitness was -0.011 ± 0.1.
For SQPEVLVPIRLDMEIDGQKARDAFTWNMNEKLMTPEMFSEILCDDLDLNPLTFVPAIASAIRQQIESY [L20A], the abundance fitness was -0.671 ± 0.23.
As to SQPEVLVPIRLDMEIDGQKMRDAFTWNMNEKLMTPEMFSEILCDDLDLNPLTFVPAIASAIRQQIESY [L20M], the abundance fitness is -0.655 ± 0.19.
Consider SQPEVLVPIRLDMEIKGQKLRDAFTWNMNEKLMTPEMFSEILCDDLDLNPLTFVPAIASAIRQQIESY [D16K], for which the abundance fitness was -0.498 ± 0.081.
SQPEVLVPIRLDMEIWGQKLRDAFTWNMNEKLMTPEMFSEILCDDLDLNPLTFVPAIASAIRQQIESY [D16W]: the abundance fitness is -0.822 ± 0.15.
